Assays:
[1] = biological target: T1, 6xHis-tagged human NGF (nerve growth factor) (Homo sapiens, UniProt P01138); assay: ELISA; NGF-6xHis (2 ug/mL) coated at 4 °C overnight; antibodies in threefold series from 100 nM, 1 h; detected with HRP goat anti-human IgG (H + L), TMB, OD450; conditions: both partners purified
T1 construct: nerve growth factor (NGF), human; also called NGF-6xHis; human NGF-6xHis; source: HEK293, transient transfection (pCAT1.0 vector)

[2] = biological target: T2, NGF-6xHis-biotin (human, UniProt P01138, biotin); assay: ELISA; blocking ELISA: TrkA-Fc (2 ug/mL) coated at 4 °C overnight; threefold dilutions of antibody 1 h at room temperature, then NGF-6xHis-biotin (0.5 ug/mL) 30 min; HRP-streptavidin, TMB; conditions: both partners purified
T2 construct: nerve growth factor (NGF), human; source: HEK293, transient transfection (pCAT1.0 vector)
T2 sequence (P01138 122-241): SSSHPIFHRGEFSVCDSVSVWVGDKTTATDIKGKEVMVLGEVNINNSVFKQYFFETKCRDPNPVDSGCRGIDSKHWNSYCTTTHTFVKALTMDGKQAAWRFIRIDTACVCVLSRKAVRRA

T1 sequence (P01138 19-241): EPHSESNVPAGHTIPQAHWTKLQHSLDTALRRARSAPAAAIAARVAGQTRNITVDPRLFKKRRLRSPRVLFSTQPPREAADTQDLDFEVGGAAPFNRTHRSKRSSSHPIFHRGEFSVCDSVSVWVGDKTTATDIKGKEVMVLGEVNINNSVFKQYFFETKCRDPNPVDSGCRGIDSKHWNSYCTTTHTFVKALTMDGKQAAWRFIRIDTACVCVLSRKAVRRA

B1: tanezumab (antibody, V domains shown)
VH: QVQLQESGPGLVKPSETLSLTCTVSGFSLIGYDLNWIRQPPGKGLEWIGIIWGDGTTDYNSAVKSRVTISKDTSKNQFSLKLSSVTAADTAVYYCARGGYWYATSYYFDYWGQGTLVTVSS
VL: DIQMTQSPSSLSASVGDRVTITCRASQSISNNLNWYQQKPGKAPKLLIYYTSRFHSGVPSRFSGSGSGTDFTFTISSLQPEDIATYYCQQEHTLPYTFGQGTKLEIK
notes: Whole antibody, held on Protein A sensors
Work on B1 yielded an EC50 [1] of 0.00934 nM and an IC50 [2] of 1.67 nM.
